Results as given in patent publication US8298545B2, “Anti-autoimmune antibodies for treatment of pemphigus” (The Trustees of the University of Pennsylvania, priority 2007, dated 2012).

Tested on: primary human epidermal keratinocytes
Experiment: Keratinocyte dissociation (dispase) assay
Format: cell-based
Details: FIG. 5M-5O
Description: The keratinocyte dissociation assay was performed as previously described (Payne et al., 2005), using either PV scFv at 5 μg/mL or PV sera at dilutions of 1:5 to 1:7.5 in 500 μL total volume defined keratinocyte-serum free media (Gibco/Invitrogen). For antibodies that only recognize Dsg3, 1 μg/mL exfoliative toxin A (ETA) was added to wells for the last two hours. For antisera depletion assays, 200 μL of PV sera flowthrough (representing a volume of 100 μL, sera, combined with the first 1-volume fraction of the PBS wash) were incubated with cells in a total volume of 500 μL, with or without ETA treatment. Dissociation assays used the total eluate from the antisera columns, concentrated to a volume of 100 μl (representing a starting volume of 250 μL sera).
The question of whether the in vitro inhibition of Dsg binding by ELISA translated into a functional block of antibody pathogenicity was investigated. It was previously shown that neonatal mouse injection is suboptimal for evaluation of pathogenicity of PV mAbs, due to differences in the specificity of mAbs for human versus mouse Dsg substrates. Therefore, the inhibition of mAb pathogenicity was evaluated by a dispase assay using cultured primary human keratinocytes. […]

B1: Exfoliative toxin A: exfoliative toxin A, inactivates Dsg1 (protein, UniProt P09331 39-280, looked up)
Exfoliative toxin A: EVSAEEIKKHEEKWNKYYGVNAFNLPKELFSKVDEKDRQKYPYNTIGNVFVKGQTSATGVLIGKNTVLTNRHIAKFANGDPSKVSFRPSINTDDNGNTETPYGEYEVKEILQEPFGAGVDLALIRLKPDQNGVSLGDKISPAKIGTSNDLKDGDKLELIGYPFDHKVNQMHRSEIELTTLSRGLRYYGFTVPGNSGSGIFNSNGELVGIHSSKVSHLDREHQINYGVGIGNYVKRIINEKNE
  pathogenicity in the keratinocyte dissociation (dispase) assay: do not demonstrate significant pathogenicity
